Assay results published in paper PMC4167974.

Target: fluorescein-labeled BalhA1 leader peptide (Bacillus sp. Al Hakam)
Assay: fluorescence polarisation

Substance: MBP-BalhC (natural protein)
- Kd: 11 µM
